Experimental data reported in paper doi:10.1101/2020.11.15.382044.

Key:
[1] = target: SARS-CoV-2 D614G mutant S trimer (design Spike_ΔCter_ΔFurin_2P_T4_His with D614G) (SARS-CoV-2 | bacteriophage T4) (UniProt P0DTC2); experiment: negative-stain electron microscopy
[2] = target: SARS-CoV-2 Spike trimer (Wuhan), design Spike_ΔCter_ΔFurin_2P_T4_His (SARS-CoV-2 | bacteriophage T4) (UniProt P0DTC2); experiment: SEC
[3] = target: SARS-CoV-2 Spike trimer (Wuhan), design Spike_ΔCter_ΔFurin_2P_T4_His (SARS-CoV-2 | bacteriophage T4) (UniProt P0DTC2); experiment: negative-stain electron microscopy

Substance	stoichiometry N [1]	stoichiometry N [2]	stoichiometry N [3]
SARS-CoV-2 D614G mutant S trimer (design Spike_ΔCter_ΔFurin_2P_T4_His with D614G) (from UniProt P0DTC2 14-1213) (complex)	3		
SARS-CoV-2 Spike trimer (Wuhan), design Spike_ΔCter_ΔFurin_2P_T4_His (from UniProt P0DTC2 14-1213) (complex)		3	3
